Test results taken from patent US6461867.

Target: T1, soluble H-2K^b (K^bsol), empty heterodimer of truncated K^b heavy chain and murine β-2 microglobulin (murine), P01901
T1 chain 1: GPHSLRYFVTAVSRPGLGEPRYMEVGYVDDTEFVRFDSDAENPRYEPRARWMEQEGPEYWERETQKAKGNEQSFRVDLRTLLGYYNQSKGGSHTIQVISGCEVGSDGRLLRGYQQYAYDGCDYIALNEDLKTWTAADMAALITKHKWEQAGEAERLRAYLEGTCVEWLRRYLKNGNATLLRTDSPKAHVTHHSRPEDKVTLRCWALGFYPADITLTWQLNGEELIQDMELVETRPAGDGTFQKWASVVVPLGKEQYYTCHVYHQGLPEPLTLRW
T1 chain 2: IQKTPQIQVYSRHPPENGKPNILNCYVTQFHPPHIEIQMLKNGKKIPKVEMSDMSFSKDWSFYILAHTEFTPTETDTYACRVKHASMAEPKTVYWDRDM

Row | Binder | Kd [nM]
1 | EQLESIINFEKLTEWTSSNVMEER (modifications not checked) [OVA-24 peptide] | 71000
2 | SIINFEKL (modifications not checked) [OVA-8 peptide (ovalbumin 257-264)] | 4.1
3 | SIINFEKLTE (modifications not checked) [OVA-10C peptide] | 14
4 | SIINFEKLT (modifications not checked) [OVA-9C peptide] | 11
5 | LESIINFEKL (modifications not checked) [OVA-10N peptide] | 280
